Reference: patent US20180155406A1 (Sanofi, published 2018)
Numbered stars: 1 amine (or outer) side, 2 acyl side, 3 side chain; on linkers, the order of the positions; unused ones are H or OH. Square brackets hold non-standard residues; d marks the D form. Side chains are listed from the residue outwards. Ends that are not written are not given here. * marks the point of attachment. γGlu = O=C(O)[C@H](CCC(=O)[*:2])N[*:1]; Palmitoyl = CCCCCCCCCCCCCCCC(=O)*; Aib = CC(C)(N)C(=O)O

B1: SEQ ID NO: 8 (peptide)
peptide: H[Aib]HGTFTSDLSKLK([γGlu-γGlu-Palmitoyl])EEQRQKEFIEWLKAGGPPS[Aib]KPPPK-NH2
B2: SEQ ID NO: 10 (peptide)
peptide: H[Aib]HGTFTSDLSKLK([γGlu-γGlu-Palmitoyl])EEQRQ[Aib]EFIEWLKAGGPPS[Aib]KPPPK-NH2
modifications: N-terminus assumed
SMILES: CCCCCCCCCCCCCCCC(=O)N[C@@H](CCC(=O)N[C@@H](CCC(=O)NCCCC[C@H](NC(=O)[C@H](CC(C)C)NC(=O)[C@H](CCCCN)NC(=O)[C@H](CO)NC(=O)[C@H](CC(C)C)NC(=O)[C@H](CC(=O)O)NC(=O)[C@H](CO)NC(=O)[C@@H](NC(=O)[C@H](Cc1ccccc1)NC(=O)[C@@H](NC(=O)CNC(=O)[C@H](Cc1c[nH]cn1)NC(=O)C(C)(C)NC(=O)[C@@H](N)Cc1c[nH]cn1)[C@@H](C)O)[C@@H](C)O)C(=O)N[C@@H](CCC(=O)O)C(=O)N[C@@H](CCC(=O)O)C(=O)N[C@@H](CCC(N)=O)C(=O)N[C@@H](CCCNC(=N)N)C(=O)N[C@@H](CCC(N)=O)C(=O)NC(C)(C)C(=O)N[C@@H](CCC(=O)O)C(=O)N[C@@H](Cc1ccccc1)C(=O)N[C@H](C(=O)N[C@@H](CCC(=O)O)C(=O)N[C@@H](Cc1c[nH]c2ccccc12)C(=O)N[C@@H](CC(C)C)C(=O)N[C@@H](CCCCN)C(=O)N[C@@H](C)C(=O)NCC(=O)NCC(=O)N1CCC[C@H]1C(=O)N1CCC[C@H]1C(=O)N[C@@H](CO)C(=O)NC(C)(C)C(=O)N[C@@H](CCCCN)C(=O)N1CCC[C@H]1C(=O)N1CCC[C@H]1C(=O)N1CCC[C@H]1C(=O)N[C@@H](CCCCN)C(N)=O)[C@@H](C)CC)C(=O)O)C(=O)O
B3: SEQ ID NO: 12 (peptide)
peptide: H[Aib]HGTFTSDLSKLK([γGlu-γGlu-Palmitoyl])EEQRQ[Aib]EFIEWLKAGGHPS[Aib]KPPPK-NH2
B4: SEQ ID NO: 7 (peptide)
peptide: H[Aib]HGTFTSDLSKLK([γGlu-γGlu-Palmitoyl])EEQRQKEFIEWLKA[dA]GHPS[Aib]KPPPK-NH2
modifications: N-terminus assumed
SMILES: CCCCCCCCCCCCCCCC(=O)N[C@@H](CCC(=O)N[C@@H](CCC(=O)NCCCC[C@H](NC(=O)[C@H](CC(C)C)NC(=O)[C@H](CCCCN)NC(=O)[C@H](CO)NC(=O)[C@H](CC(C)C)NC(=O)[C@H](CC(=O)O)NC(=O)[C@H](CO)NC(=O)[C@@H](NC(=O)[C@H](Cc1ccccc1)NC(=O)[C@@H](NC(=O)CNC(=O)[C@H](Cc1c[nH]cn1)NC(=O)C(C)(C)NC(=O)[C@@H](N)Cc1c[nH]cn1)[C@@H](C)O)[C@@H](C)O)C(=O)N[C@@H](CCC(=O)O)C(=O)N[C@@H](CCC(=O)O)C(=O)N[C@@H](CCC(N)=O)C(=O)N[C@@H](CCCNC(=N)N)C(=O)N[C@@H](CCC(N)=O)C(=O)N[C@@H](CCCCN)C(=O)N[C@@H](CCC(=O)O)C(=O)N[C@@H](Cc1ccccc1)C(=O)N[C@H](C(=O)N[C@@H](CCC(=O)O)C(=O)N[C@@H](Cc1c[nH]c2ccccc12)C(=O)N[C@@H](CC(C)C)C(=O)N[C@@H](CCCCN)C(=O)N[C@@H](C)C(=O)N[C@H](C)C(=O)NCC(=O)N[C@@H](Cc1c[nH]cn1)C(=O)N1CCC[C@H]1C(=O)N[C@@H](CO)C(=O)NC(C)(C)C(=O)N[C@@H](CCCCN)C(=O)N1CCC[C@H]1C(=O)N1CCC[C@H]1C(=O)N1CCC[C@H]1C(=O)N[C@@H](CCCCN)C(N)=O)[C@@H](C)CC)C(=O)O)C(=O)O
B5: SEQ ID NO: 9 (peptide)
peptide: H[Aib]HGTFTSDLSKLK([γGlu-γGlu-Palmitoyl])EEQRQKEFIEWLKA[dA]GPPS[Aib]KPPPK-NH2
modifications: N-terminus assumed
SMILES: CCCCCCCCCCCCCCCC(=O)N[C@@H](CCC(=O)N[C@@H](CCC(=O)NCCCC[C@H](NC(=O)[C@H](CC(C)C)NC(=O)[C@H](CCCCN)NC(=O)[C@H](CO)NC(=O)[C@H](CC(C)C)NC(=O)[C@H](CC(=O)O)NC(=O)[C@H](CO)NC(=O)[C@@H](NC(=O)[C@H](Cc1ccccc1)NC(=O)[C@@H](NC(=O)CNC(=O)[C@H](Cc1c[nH]cn1)NC(=O)C(C)(C)NC(=O)[C@@H](N)Cc1c[nH]cn1)[C@@H](C)O)[C@@H](C)O)C(=O)N[C@@H](CCC(=O)O)C(=O)N[C@@H](CCC(=O)O)C(=O)N[C@@H](CCC(N)=O)C(=O)N[C@@H](CCCNC(=N)N)C(=O)N[C@@H](CCC(N)=O)C(=O)N[C@@H](CCCCN)C(=O)N[C@@H](CCC(=O)O)C(=O)N[C@@H](Cc1ccccc1)C(=O)N[C@H](C(=O)N[C@@H](CCC(=O)O)C(=O)N[C@@H](Cc1c[nH]c2ccccc12)C(=O)N[C@@H](CC(C)C)C(=O)N[C@@H](CCCCN)C(=O)N[C@@H](C)C(=O)N[C@H](C)C(=O)NCC(=O)N1CCC[C@H]1C(=O)N1CCC[C@H]1C(=O)N[C@@H](CO)C(=O)NC(C)(C)C(=O)N[C@@H](CCCCN)C(=O)N1CCC[C@H]1C(=O)N1CCC[C@H]1C(=O)N1CCC[C@H]1C(=O)N[C@@H](CCCCN)C(N)=O)[C@@H](C)CC)C(=O)O)C(=O)O
B6: SEQ ID NO: 11 (peptide)
peptide: H[Aib]HGTFTSDLSKLK([γGlu-γGlu-Palmitoyl])EEQRQ[Aib]EFIEWLKA[dA]GPPS[Aib]KPPPK-NH2
modifications: N-terminus assumed
SMILES: CCCCCCCCCCCCCCCC(=O)N[C@@H](CCC(=O)N[C@@H](CCC(=O)NCCCC[C@H](NC(=O)[C@H](CC(C)C)NC(=O)[C@H](CCCCN)NC(=O)[C@H](CO)NC(=O)[C@H](CC(C)C)NC(=O)[C@H](CC(=O)O)NC(=O)[C@H](CO)NC(=O)[C@@H](NC(=O)[C@H](Cc1ccccc1)NC(=O)[C@@H](NC(=O)CNC(=O)[C@H](Cc1c[nH]cn1)NC(=O)C(C)(C)NC(=O)[C@@H](N)Cc1c[nH]cn1)[C@@H](C)O)[C@@H](C)O)C(=O)N[C@@H](CCC(=O)O)C(=O)N[C@@H](CCC(=O)O)C(=O)N[C@@H](CCC(N)=O)C(=O)N[C@@H](CCCNC(=N)N)C(=O)N[C@@H](CCC(N)=O)C(=O)NC(C)(C)C(=O)N[C@@H](CCC(=O)O)C(=O)N[C@@H](Cc1ccccc1)C(=O)N[C@H](C(=O)N[C@@H](CCC(=O)O)C(=O)N[C@@H](Cc1c[nH]c2ccccc12)C(=O)N[C@@H](CC(C)C)C(=O)N[C@@H](CCCCN)C(=O)N[C@@H](C)C(=O)N[C@H](C)C(=O)NCC(=O)N1CCC[C@H]1C(=O)N1CCC[C@H]1C(=O)N[C@@H](CO)C(=O)NC(C)(C)C(=O)N[C@@H](CCCCN)C(=O)N1CCC[C@H]1C(=O)N1CCC[C@H]1C(=O)N1CCC[C@H]1C(=O)N[C@@H](CCCCN)C(N)=O)[C@@H](C)CC)C(=O)O)C(=O)O

Assays:
Test in all cases: cell-based or functional assay
[1] = target: human glucagon receptor (human, UniProt P47871 26-477)
human glucagon receptor, sequence (P47871 26-477): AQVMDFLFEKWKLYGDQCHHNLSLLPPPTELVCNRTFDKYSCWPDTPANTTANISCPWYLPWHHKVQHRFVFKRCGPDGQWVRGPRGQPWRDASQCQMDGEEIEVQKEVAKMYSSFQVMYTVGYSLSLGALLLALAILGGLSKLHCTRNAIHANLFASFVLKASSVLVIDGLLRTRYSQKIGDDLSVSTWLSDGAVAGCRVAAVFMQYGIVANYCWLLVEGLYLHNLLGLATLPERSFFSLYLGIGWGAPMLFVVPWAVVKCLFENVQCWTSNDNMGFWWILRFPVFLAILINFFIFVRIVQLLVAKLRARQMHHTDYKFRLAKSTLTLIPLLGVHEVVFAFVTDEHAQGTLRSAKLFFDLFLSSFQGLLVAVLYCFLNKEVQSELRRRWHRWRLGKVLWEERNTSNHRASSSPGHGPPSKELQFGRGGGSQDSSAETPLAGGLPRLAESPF

[2] = target: human GLP-1 receptor (human, UniProt P43220 24-463)
[3] = target: T1, human GIP receptor (human, UniProt P48546 22-466)
T1 sequence (looked up): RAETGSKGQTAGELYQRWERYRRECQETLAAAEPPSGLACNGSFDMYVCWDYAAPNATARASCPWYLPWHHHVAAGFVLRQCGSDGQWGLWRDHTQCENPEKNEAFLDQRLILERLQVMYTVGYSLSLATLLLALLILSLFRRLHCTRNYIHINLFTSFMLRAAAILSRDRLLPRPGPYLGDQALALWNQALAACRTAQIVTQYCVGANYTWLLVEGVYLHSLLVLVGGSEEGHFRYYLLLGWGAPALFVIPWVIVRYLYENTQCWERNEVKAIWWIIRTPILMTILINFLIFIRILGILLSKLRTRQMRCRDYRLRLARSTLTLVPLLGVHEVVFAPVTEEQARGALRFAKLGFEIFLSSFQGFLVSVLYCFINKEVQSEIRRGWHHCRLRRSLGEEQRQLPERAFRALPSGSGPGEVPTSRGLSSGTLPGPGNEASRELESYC

Binder	EC50 hGlucagon R (cAMP formation) [1] [pM]	EC50 hGLP-1R (cAMP formation) [2] [pM]	EC50 hGIP R (cAMP formation) [3] [pM]
B1	2	1.3	1.6
B2	1.6	2.3	1.1
B3	2	1.8	1.9
B4	3.2	1.7	2.6
B5	2.9	1.6	2.6
B6	2.1	2.9	1.5
